Measured values taken from publication PMC10477244.

Target: SARS-CoV-2 virus particles (spike presumed target) (SARS-CoV-2 (isolate not in material)) (UniProt P0DTC2)

Sequence	binding signal [A450]
GGTATTGAGGGTCGCATCGTAATAGCGCATGTTGTGAGGCAGGCGCGAATCAGCTCGTGAGATGGCTCTAACTCTCCTCT [aptamer T (Apt@T2)]	0.74
GGTATTGAGGGTCGCATCGTTACTGGACCAAACAGCACAAAGGACGCCCATAAACCCGGATGGCTCTAACTCTCCTCT [aptamer R (Apt@R2)]	0.83
